Measurements as given in paper PMC3838848 (BioMed Research International, 2013).

Molecular target: the molecule itself
Test: SEC-MALS; 500 uL sample at 1 mg/mL on Superdex 75 10/30 in 50 mM Tris-HCl, 0.15 M NaCl, pH 8.0, online triple-angle static light scattering (MiniDAWN Treos)

B1: POZ/BTB domain of KCTD6 (domain or fragment, human, UniProt Q8NC69 10-110, looked up)
chain: MTDPVTLNVGGHLYTTSLTTLTRYPDSMLGAMFGGDFPTARDPQGNYFIDRDGPLFRYVLNFLRTSELTLPLDFKEFDLLRKEADFYQIEPLIQCLNDPKP
notes: KCTD6, human, POZ/BTB domain, residues 10-110 of the protein of 237 residues (UniProt Q8NC69); cDNA NM_153331; also called KCTD6BTB; source: E. coli BL21(DE3) Star, purified
stoichiometry N: 4
